Test results reported in US20190185564A1 (AGENCY FOR SCIENCE TECHNOLOGY AND RESEARCH, published 2019).
Where a chain is given by its changes, count along the chain named.

B1: anti-TIM-3 antibody clone A3 (antibody, V domains shown)
VH: QVQLVQSGAEVKKPGASVKVSCKASGYTFTSYYMHWVRQAPGQGLEWMGIINPSGGSTSYAQKFQGRVTMTRDTSTSTVYMELSSLRSEDTAVYYCARSPGVVTALFDYWGQGTLVTVSS
VL: DIQMTQSPSFMSASVGDRVTITCRASQDIGSYLAWYQQKPGKAPKLLIYAASTLQSGVPSRFSGSGSGTDFTLTINSLQPEDFATYYCQQSYSSPPTFGPGTTLEIK
notes: Isolated from a human phage library and screened as Fab; SPR was recorded for 'each candidate Fab'
B2: anti-TIM-3 antibody clone B10 (antibody, V domains shown)
VH: QVQLQESGPGLVKASETLSLTCTVSGGSIGSSDYYWGWIRQPPGKGLEWIGSIYYSGSTYYNPSLKSRVTMSVDTPNNQFSLKLSSVTAADTAVYYCARGEHRGEFDYWGQGTLVTVSS
VL: EIVLTQSPATLSFSPGERATLSCRASQSVGSYLAWYQQRPGQAPRPLIYDATNRATGIPTRFSGSGSGTDFTLTISSLEPEDFATYYCQHRRTFGRGTKLEIK
notes: Screened as Fab, and SPR was recorded for 'each candidate Fab'
B3: anti-TIM-3 antibody clone G6 (antibody, V domains shown)
VH: QVQLQESGPGLVKPSGTLSLTCAVSGGSISSSNWWSWVRQPPGKGLEWIGEIYHSGSTNYNPSLKSRVTISVDKSKNQFSLKLSSVTAADTAVYYCARVVAVAGTVDYWGQGTLVTVSS
VL: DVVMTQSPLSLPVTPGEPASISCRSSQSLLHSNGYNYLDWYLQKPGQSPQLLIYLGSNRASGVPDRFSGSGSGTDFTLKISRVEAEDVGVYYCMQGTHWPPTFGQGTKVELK
notes: as for B2
B4: anti-TIM-3 antibody clone G7 (antibody, V domains shown)
VH: EVQLVQSGAEVKKPGASVKVSCKASGYTFTSYYMHWVRQAPGQGLEWMGIINPSGGSTSYAQKFQGRVTMTRDTSTSTVYMELSSLRSEDTAVYYCARDQYSSGWYYYGMDVWGQGTTVTVSS
VL: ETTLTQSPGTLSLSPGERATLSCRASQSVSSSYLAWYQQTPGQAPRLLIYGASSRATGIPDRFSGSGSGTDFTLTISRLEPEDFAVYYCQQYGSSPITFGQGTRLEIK
notes: as for B2
B5: anti-TIM-3 antibody clone G9 (antibody, V domains shown)
VH: B4 VH with E1Q, V5Q, Q100L, S103Y, W105F
VL: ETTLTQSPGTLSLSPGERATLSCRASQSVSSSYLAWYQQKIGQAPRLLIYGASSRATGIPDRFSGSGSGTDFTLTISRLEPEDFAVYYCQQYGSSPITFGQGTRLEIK
notes: as for B2
B6: anti-TIM-3 antibody clone A11 (antibody, V domains shown)
VH: QVQLQQWGAGLLKPSETLSLTCAVYGGSFSGYYWSWIRQPPGKGLEWIGEINHSGSTNYNPSLKSRVTISVDTSKNQFSLKLSSVTAADTAVYYCARGYVAGFDYWGQGTLVTVSS
VL: QSVVTQPPSVSAAPGQKVTISCSGSSSNIGNNYVSWYQQLPGTAPKLLIYGNNWRPSGIPDRFSGSKSGTSATLAISGLQTGDEADYYCETWDSSLSAGVFGGGTKLTVL
notes: as for B2

These binders were tested against T1, Mouse Tim-3-Fc (mouse, UniProt Q8VIM0) (assay: ELISA on coated mouse TIM-3-Fc, absorbance 450-670 nm).
T1 construct: coupled to human Fc; ELISA coating antigen for the cross-reactivity test; also called mouse TIM-3 coupled to human Fc
Description: (§1) After a small-scale induction in HB2151 cells, Fab antibodies were screened by ELISA. […] After extensive washes in PBS Tween-20, Fab-containing supernatants from induction plates were transferred into the ELISA plates in the presence of 7% milk in PBS. After 90 minutes at room temperature under agitation and extensive washes, a goat anti-human Fab antibody coupled to HRP was added. One hour later, plates were washed and TMB substrate added. The reaction was stopped with 1M HCl and optical density measured at 450 nm with a reference at 670 nm. Antibodies giving an absorbance >0.1 were selected as positive.
B1: no binding.
B2: no binding.
B3: no binding.
B4: no binding.
B5: no binding.

Target: T1, Mouse Tim-3-Fc
Test: as above
Remark: another data set of the same source
Description: as §1
B6: no binding.
